Laboratory results published in IntAct's records for PubMed 20010697.

B1: Zinc finger protein ZFPM1 (Mus musculus), O35615 (parent)
chain: MSRRKQSNPRQIKRSLRDMEAGEEAKAMDSSPKEQEAPDPEAPAIEEPPSPPREDVSPPAVPAPPESPEDPEDMEGQELEMRPQDEEKEEKEEEAAMASPWSGPEELELALQDGQRCVRARLSLTEGLSWGPFYGSIQTRALSPEREEPGPAVTLMVDESCWLRMLPQVLTEEAANSEIYRKDDALWCRVTKVVPSGGLLYVRLVTEPHGAPRHPVQEPVEPGGLAPVHTDIQLLPQQAGMASILATAVINKDVFPCKDCGIWYRSERNLQAHLLYYCASRQRAGSPVSATEEKPKETYPNERVCPFPQCRKSCPSASSLEIHMRSHSGERPFVCLICLSAFTTKANCERHLKVHTDTLSGVCHNCGFISTTRDILYSHLVTNHMVCQPGSKGEIYSPGAGHPAAKLPPDSLAGFQQHSLMHSPLVPADKAPTPSSGLDSKAEVTNGETRVPPQNGGSSESPAAPRTIKVEAAEEPEATRASGPGEPGPQAPSRTPSPHSPNPVRVKTELSSPTPGSSPGPGELTMAGTLFLPQYVFSPDAGTTTVPTAPQASEILAKMSELVHNRLQQGAGSSGAAGTPTGLFSGTKGATCFECEITFNNINNFYVHKRLYCSGRRAPEDPPTVRRPKAATGPARAPAGAAAEPDPSRSSPGPGPREEEASGTTTPEAEAAGRGSEGSQSPGSSVDDAEDDPSRTLCEACNIRFSRHETYTVHKRYYCASRHDPPPRRPPAPTTAPGPAAPALTAPPVRTRRRRKLYELPAAGAPPPAAGPAPVPVVPSPTAELPSSPRPGSASAGPAPALSPSPVPDGPIDLSKRPRRQSPDAPTALPALADYHECTACRVSFHSLEAYLAHKKYSCPAAPLRTTALCPYCPPNGRVRGDLVEHLRQAHGLQVAKPAASPGAEPRTPAERAPRDSPDGRAPRSPSPAPENTPSDPADQGARTPSKGPPAPAPAPGGGGGHRYCRLCNIRFSSLSTFIAHKKYYCSSHAAEHVK
partner: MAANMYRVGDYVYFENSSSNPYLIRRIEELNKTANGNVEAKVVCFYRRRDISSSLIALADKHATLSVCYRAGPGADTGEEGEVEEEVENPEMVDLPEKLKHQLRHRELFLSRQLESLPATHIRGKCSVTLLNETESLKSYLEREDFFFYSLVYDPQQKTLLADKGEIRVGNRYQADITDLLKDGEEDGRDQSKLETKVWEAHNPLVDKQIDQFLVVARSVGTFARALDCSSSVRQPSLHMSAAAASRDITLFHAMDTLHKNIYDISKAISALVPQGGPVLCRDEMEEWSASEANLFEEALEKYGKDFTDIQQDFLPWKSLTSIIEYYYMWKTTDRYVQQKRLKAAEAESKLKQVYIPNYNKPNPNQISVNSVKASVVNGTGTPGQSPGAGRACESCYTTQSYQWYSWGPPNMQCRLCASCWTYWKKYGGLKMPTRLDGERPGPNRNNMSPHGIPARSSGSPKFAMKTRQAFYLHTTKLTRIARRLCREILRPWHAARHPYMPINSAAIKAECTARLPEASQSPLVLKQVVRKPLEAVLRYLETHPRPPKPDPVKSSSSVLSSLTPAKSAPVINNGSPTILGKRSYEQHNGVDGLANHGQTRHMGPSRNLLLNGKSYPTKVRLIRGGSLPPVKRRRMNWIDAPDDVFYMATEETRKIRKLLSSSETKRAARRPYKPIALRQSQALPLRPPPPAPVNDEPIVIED

Variants of: B1
Conditions: with mta1_rat Mta1, Q62599

effect of a mutation on the interaction | Variant
disrupting interaction | K5A
disrupting interaction | R3A
